Data reported in article PMC8991485, “Protein purification strategies must consider downstream applications and individual biological characteristics” (Microbial Cell Factories, 2022).

How the values were obtained:
[1] = target: cysteine-less mutant of Galectin-1 (UniProt P09382); assay: AUC; analytical ultracentrifugation (sedimentation) of Galectin-1 purified in reducing or non-reducing conditions
[2] = target: wild-type recombinant soluble LLT1; assay: SEC; gel filtration of recombinant soluble LLT1 made in HEK293T; peak at 16 ml taken as the non-covalent dimer
[3] = target: the molecule itself; assay: as above

cysteine-less mutant of Galectin-1 (from UniProt P09382 1-135)
stoichiometry N [1]: 2

wild-type recombinant soluble LLT1 (domain or fragment)
stoichiometry N [2]: 2

B1: soluble LLT1 H176C mutant (domain or fragment)
chain: QAACPESWIGFQRKCFYFSDDTKNWTSSQRFCDSQDADLAQVESFQELNFLLRYKGPSDHWIGLSREQGQPWKWINGTEWTRQFPILGAGECAYLNDKGASSARCYTERKWICSKSDIHV
notes: soluble fragment of the lymphocyte receptor LLT1 with H176C, which restores the disulfide Cys163-Cys176; also called second mutant; source: HEK293T cell line, purified (gel filtration)
stoichiometry N [3]: 2
